System: NLuc-UAG PTC
Experiment: NanoLuc nonsense reporter screen (all-in-one HTC plasmid), TAG/UAG PTC, HEK293 cells
Assay type: cell-based, human
Details: Table 5, Glu TAG
From the text: (§1) In order to enable the identification of the nucleotide composition and functional ability to suppress nonsense codons by new types of tRNA, an All-In-One Plasmid With A One Pot Cloning Reaction was invented for High Throughput Cloning FIG. 11. This approach enables the facile investigation of ACE-tRNA activity via luciferase activity in a standard 96 well format. Briefly, synthetic nucleotide sequences encoding for tRNA are ligated into the NanoLuc Reporter plasmid, with an example of the TGA nonsense reporter plasmid variant shown in FIG. 11. […] and TAG (amber) stop codon rescue vectors have been successfully designed and implemented in FIGS. 16-19. The benefits are the approach is that DNA oligos encoding for tRNA libraries can be ligated in the NanoLuc reporter plasmid with the presence of the restriction enzyme and ligase with the reaction pushed to nearly 100% incorporation of tRNA insert (FIG. 11)-thus the ‘one-pot’ designation. The reaction is transformed into E. coli, with the resultant cDNA purified by standard methods. Another benefit of the invented method is that the tRNA and reporter gen are within the single expression cassette, therefore lowering biological variability and improving data quality obtaining in resulting screens of tRNA suppression activity. The purified cDNA plasmids are then screened in high-throughput 96 well format for their ability to repair nonsense codons by inferred luciferase activity. The approach is suitable for the high-throughput screening of hundreds to thousands of tRNA for novel therapeutic activity.
(§2) The rationale of this study is rooted in the observation that there are multiple tRNA genes with unique sequences (isodecoders) for a given cognate amino acid (isoacceptors), leading to >400 tRNAs annotated in the human genome (http:lowelab.ucsc.edu/GtRNAdb/)^28, 29. First, tRNA genes were examined to identify individual ACE-tRNAs that retain suppression efficacy of PTCs in mammalian cells. In order to maximize sequence coverage, an all-in-one cDNA plasmid was generated that supports both high-throughput cloning (HTC) of ACE-tRNAs and quantitative measurement of PTC suppression using luminescence following delivery to mammalian cells, FIG. 21B. ACE-tRNA sequences were cloned as DNA oligos into the HTC plasmid using Golden Gate cloning^30 paired with ccdB negative selection^31. This strategy produced ˜100% cloning efficiency. ACE-tRNA suppression efficiency was read out from a split NanoLuc luciferase (NLuc) NanoBiT platform whereby the PTC of interest (UGA, UAA, or UAG) was introduced in-frame at the junction between the large bit and small bit domains, FIG. 21B^32, using a 96-well format and normalized to background obtained in NLuc-PTC expressing cells. Twenty-one glycine ACE-tRNAs were first evaluated for suppression of the UGA PTC, FIG. 22, top left, column 1 (violet). […] Given the high sequence conservation among the Gly-tRNAs screened for anti-codon tolerance (FIG. 27), it would be difficult to predict de novo which tRNA would be most amenable to anticodon-editing.
(§3) The parent plasmid used was pcDNA3.1(+). The cDNA encoding pNLuc was Gibson Assembled (New England Biolabs, USA) into restriction sites HindIII and XhoI. A glycine (codon gga), tryptophan ([…]), amber (tag), opal (tga) and ochre (taa), were added to amino acid position 160 during cDNA per. The pcDNA3.1(+) polyA sequence was replaced for one with no BbsI restriction sites using per based Gibson Assembly. The high throughput ACE-tRNA Golden Gate cloning site was generated by first inserting the 5′ leader sequence of the human tRNA^Tyr gene (bold) with a T7 promoter sequence upstream (italics)
(§4) tRNA gene sequences were obtained from the tRNA database tRNAscan-SE (http://gtrnadb.ucsc.edu/index.html; PMID: 26673694). […]

Row | Molecule | Ranking
1 | GluTAGchr13.trna2: ACE-tRNA Glu, TAG suppressor, SEQ ID NO: 38 (nucleic acid, expressed or natural sequence) CGTCTCCCACATGGTCTAGCGGTTAGGATTCCTGGTTCTAACCCAGGCGGCCCGGGTTCGACTCCCGGTGTGGGAA | #1
2 | GluTAGchr2.trna18: ACE-tRNA Glu, TAG suppressor, SEQ ID NO: 39 (nucleic acid, expressed or natural sequence) CGTCTCCCATATGGTCTAGCGGTTAGGATTCCTGGTTCTAACCCAGGTGGCCCGGGTTCGACTCCCGGTATGGGAA | #2
3 | GluTAGchr1.trna123: ACE-tRNA Glu, TAG suppressor, SEQ ID NO: 40 (nucleic acid, expressed or natural sequence) CGTCTCCCTGGTGGTCTAGTGGCTAGGATTCGGCGCTCTAACCGCCGCGGCCCGGGTTCGATTCCCGGTCAGGGAA | #3
4 | GluTAGchr1.trna106: ACE-tRNA Glu, TAG suppressor, SEQ ID NO: 41 (nucleic acid, expressed or natural sequence) CGTCTCCCTGGTGGTCTAGTGGTTAGGATTCGGCGCTCTAACCGCCGCGGCCCGGGTTCGATTCCCGGTCAGGGAA | #4

System: NLuc-UAA PTC
Experiment: NanoLuc nonsense reporter screen (all-in-one HTC plasmid), TAA/UAA PTC, HEK293 cells
Assay type: cell-based, human
Details: Table 3, Gln TAA
From the text: as §1, §2, §3, §4

Row | Molecule | Ranking
5 | GlnTAAchr1.trna17: ACE-tRNA Gln, TAA suppressor, SEQ ID NO: 26 (nucleic acid, expressed or natural sequence) CGTCGGTTCCATGGTGTAATGGTGAGCACTCTGGACTTTAAATCCAGCGATCCGAGTTCGAGTCTCGGTGGAACCT | #3
6 | GlnTAAchr6.trna63: ACE-tRNA Gln, TAA suppressor, SEQ ID NO: 29 (nucleic acid, expressed or natural sequence) CGTCGGTCCCATGGTGTAATGGTTAGCACTCTGGACTTTAAATCCAGCAATCCGAGTTCGAATCTCGGTGGGACCT | #5.2
7 | GlnTAAchr1.trna101: ACE-tRNA Gln, TAA suppressor, SEQ ID NO: 24 (nucleic acid, expressed or natural sequence) CGTCGGTTCCATGGTGTAATGGTAAGCACTCTGGACTTTAAATCCAGCGATCCGAGTTCGAGTCTCGGTGGAACCT | #1
8 | GlnTAAchr6.trna1: ACE-tRNA Gln, TAA suppressor, SEQ ID NO: 27 (nucleic acid, expressed or natural sequence) CGTCGGTTCCATGGTGTAATGGTTAGCACTCTGGACTTTAAATCCAGCGATCCGAGTTCAAATCTCGGTGGAACCT | #4
9 | GlnTAAchr17.trna14: ACE-tRNA Gln, TAA suppressor, SEQ ID NO: 28 (nucleic acid, expressed or natural sequence) CGTCGGTCCCATGGTGTAATGGTTAGCACTCTGGACTTTAAATCCAGCGATCCGAGTTCAAATCTCGGTGGGACCT | #5
10 | GlnTAAchr6.trna175: ACE-tRNA Gln, TAA suppressor, SEQ ID NO: 25 (nucleic acid, expressed or natural sequence) CGTCGGCCCCATGGTGTAATGGTTAGCACTCTGGACTTTAAATCCAGCGATCCGAGTTCAAATCTCGGTGGGACCT | #2

System: native stop codons (TAA, TAG, TGA) of HEK293 transcripts
Experiment: Ribosome footprint profiling of transcriptome-wide 3′UTRs
Assay type: cell-based, human
Details: HEK293, log 2-fold change versus control
From the text: The question was raised whether ACE-tRNAs that show efficacious suppression of premature stop codons may also induce global readthrough of native stop codons. To address this potential “off target” suppression, a transcriptome-wide quantitative profile of actively engaged ribosomes on all cellular transcripts was obtained by generating libraries of ribosome footprints from HEK293 cells expressing exogenous ACE-tRNAs or a control mock plasmid (puc57GG). Streptomycin was removed from the growth media to prevent readthrough artifacts. For comparison, the ribosome footprint library was also generated from cells in the presence or absence of G418 (150 μM, 48 hours). […] Only transcripts with a minimum threshold of 5 RPKM in the coding sequence and 0.5 RPKM in the 3′UTR in two replicate libraries were included for the quantitation comparison (254 transcripts in G418 and 495-748 transcripts in ACE-tRNAs). […] ACE-tRNAs examined here had no detectable change of 3′UTR ribosome density with the exception of ACE-tRNA Gln-UAA and Arg-UGA which induced approximately a 2-fold increase in 3′UTR ribosome density for the cognate stop codon complimentary to the ACE-tRNA anticodon. Understanding the biological significance of 2-fold readthrough of protein stops will require further study, but this effect is substantially lower compared to the 100- to 1000-fold suppression of PTC for the same ACE-tRNA.
Multiple in-frame stop codons are frequently found at the end of genes^37-39 and may cause a minor difference in overall 3′UTR ribosome density for ACE-tRNA and G418 treatment. Ribosome occupancy was examined at each nucleotide in the 3′UTR within a 60 nt region downstream of the stop codons. […] Reads were normalized per total million-mapped reads, compared against control cells, and reported as a log 2-fold change as in panel A. More than 5,200 transcripts were mapped to at least 1 footprint in the region of interest. […] Taken together, the ribosome profiling data argue that efficiency of native stop codon suppression by ACE-tRNAs is generally low, and markedly less than the level of PTC suppression.
Ribosome Footprint Profiling Library preparation. HEK293 cells transiently transfected with ACE-tRNAs and control plasmid (puc57GG) were grown in standard grown media in the absence of Pen-Strep for 48 h. Libraries were prepared as described^55, with a few modifications. Briefly, cells were rapidly cooled by addition of ice-cold PBS, lysed in lysis buffer (20 mM Tris-HCl/pH7.4, 150 mM NaCl, 5 mM MgCl2, 1 mM DTT, 1% (v/v) Triton X-100, and 25 U ml^−1 Turbo DNase I) for 10 min on ice, and triturated with ten times through a 26-G needle. After clearance by centrifugation at 16,000 g for 10 min at 4° C., the lysates were digested with 100 U RNase I (Ambion, USA) per A260 lysate at room temperature for 45 min with gentle agitation prior to adding 200 U RiboLock RNase Inhibitor (Thermo Scientific). Ribosome protected mRNA fragments were then isolated by loading lysates onto a 1M sucrose cushion prepared in modified polysome buffer (20 mM Tris-HCl/pH7.4, 150 mM NaCl, 8.5 mM MgCl2, 0.5 mM DTT, 20 U ml^−1 RiboLock RNase Inhibitor) and centrifugated at 70,000 rpm at 4° C. for 2 h using a Beckmen TLA-110 rotor. Ribosome pellets containing mRNA footprints were extracted using TRIzol and separated on a denaturing 12% polyacrylamide gel containing 8M urea. RNA fragments with sizes ranging from 26 to 34 nt were manually excised from the gel stained with SYBR Gold (Invitrogen) and isolated to generate the ribosome-protected fragment library. Contaminating rRNA fragments depleted using a Ribo-Zero kit (Illumina). 3′ Oligonucleotide adaptor ligation, reverse transcription, circularization, and secondary rRNA depletion using biotinylated rRNA depletion oligos (Table 9) were performed as described^55. Libraries were barcoded using indexing primers for each sample during PCR amplification. […]

Row | Molecule | ribosome occupancy at each nucleotide in the 3′UTR downstream of stop codons
11 | CN[C@@H]1[C@@H](O)[C@@H](O[C@@H]2[C@@H](O)[C@H](O[C@H]3O[C@H]([C@@H](C)O)[C@@H](O)[C@H](O)[C@H]3N)[C@@H](N)C[C@H]2N)OC[C@]1(C)O [G418, reference compound] | no observable change of ribosome occupancy

Same assay, conditions: HEK293; G418 150 μM, 48 hours; cognate stop codon group

Row | Molecule | change of 3′UTR ribosome density versus control
12 | CN[C@@H]1[C@@H](O)[C@@H](O[C@@H]2[C@@H](O)[C@H](O[C@H]3O[C@H]([C@@H](C)O)[C@@H](O)[C@H](O)[C@H]3N)[C@@H](N)C[C@H]2N)OC[C@]1(C)O [G418, reference compound] | no observable effect

— US20230203482A1, “Methods of Rescuing Stop Codons via Genetic Reassignment with ACE-tRNA” (THE WISTAR INSTITUTE OF ANATOMY AND BIOLOGY, priority 2017, published 2023)
